JP2012233002A

What was measured:
[1] = target: Aβ (β-amyloid peptide; length and physical form not specified in the assay) (human) (UniProt P05067); assay: Biacore (SPR)
[2] = target: Aβ (β-amyloid peptide; length and physical form not specified in the assay) (human) (UniProt P05067); assay: BIAcore (SPR)
[3] = target: 凝集型Aβ1−42 (aggregated synthetic Aβ1-42) (human) (UniProt P05067); assay: ELISA on aggregated synthetic Aβ1-42
[4] = target: 可溶性Aβ1−42 (soluble synthetic Aβ1-42 sonicated in DMSO, 125I-labelled) (human) (UniProt P05067); assay: capture radioimmunoassay, 50,000 CPM 125I-Aβ1-42 (or 125I-Aβ1-40)

With “組換えマウス12A11Cγ2a(アイソタイプスイッチ12A11) (antibody)” the Kd [1] was 38 nM.
Substance マウス3D6 (mouse monoclonal antibody 3D6) has a Kd [2] of 0.88 nM.
With “マウス10D5 (mouse monoclonal antibody 10D5)” the affinity (親和性) [3] was less than 1 nM and the percent of radioactive counts bound at 10 μg/ml antibody [4] was 2%.
